Patent US20230331828A1

Molecular target: soluble Aβ (Aβ42) aggregates (human)
Experiment: cell-based or functional assay

Chain of soluble Aβ (Aβ42) aggregates (human) (peptide, as listed by the source): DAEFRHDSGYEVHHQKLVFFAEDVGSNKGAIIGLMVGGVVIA

Mean (Aβ spots per neuron); Isotype Control 1:50 (Aβ spots per neuron): 58.7
Substance: human IgG isotype control antibody
